{"source": "paper PMC9722645", "about": "(Structure (London, England : 1993), 2022)", "molecules": {"B1": {"name": "p120RasGAP: key regulatory protein of the Ras subfamily of small guanine-nucleotide binding GTPases (protein)", "chain": "TAPPTNQWYHGKLDRTIAEERLRQAGKSGSYLIRESDRRPGSFVLSFLSQMNVVNHFRIIAMSGDYYIGGRRFSSLSDLIGYYSHVSSLLKGEKLLYPVAPPEPVEDRRRVRAILPYTKVPDTDEISFLKGDMFIVHNELEDGWMWVTNLRTDEQGLIVEDLVEEVGREEDPHEGKIWFHGKISKQEAYNLLMTVGQVSSFLVRPSDNTPGDYSLYFRTNENIQRFKISPTPNNQFMMGGRYYNSIGDIIDHYRKEQIVEGYYLKEPVPMQ", "modifications": "left off: His6, N-terminal, cleaved"}}, "key": {"[1]": {"molecular_target": "p190RhoGAP pY1105 peptide (Homo sapiens) (UniProt Q9NRY4)", "sequence (Q9NRY4 whole entry)": "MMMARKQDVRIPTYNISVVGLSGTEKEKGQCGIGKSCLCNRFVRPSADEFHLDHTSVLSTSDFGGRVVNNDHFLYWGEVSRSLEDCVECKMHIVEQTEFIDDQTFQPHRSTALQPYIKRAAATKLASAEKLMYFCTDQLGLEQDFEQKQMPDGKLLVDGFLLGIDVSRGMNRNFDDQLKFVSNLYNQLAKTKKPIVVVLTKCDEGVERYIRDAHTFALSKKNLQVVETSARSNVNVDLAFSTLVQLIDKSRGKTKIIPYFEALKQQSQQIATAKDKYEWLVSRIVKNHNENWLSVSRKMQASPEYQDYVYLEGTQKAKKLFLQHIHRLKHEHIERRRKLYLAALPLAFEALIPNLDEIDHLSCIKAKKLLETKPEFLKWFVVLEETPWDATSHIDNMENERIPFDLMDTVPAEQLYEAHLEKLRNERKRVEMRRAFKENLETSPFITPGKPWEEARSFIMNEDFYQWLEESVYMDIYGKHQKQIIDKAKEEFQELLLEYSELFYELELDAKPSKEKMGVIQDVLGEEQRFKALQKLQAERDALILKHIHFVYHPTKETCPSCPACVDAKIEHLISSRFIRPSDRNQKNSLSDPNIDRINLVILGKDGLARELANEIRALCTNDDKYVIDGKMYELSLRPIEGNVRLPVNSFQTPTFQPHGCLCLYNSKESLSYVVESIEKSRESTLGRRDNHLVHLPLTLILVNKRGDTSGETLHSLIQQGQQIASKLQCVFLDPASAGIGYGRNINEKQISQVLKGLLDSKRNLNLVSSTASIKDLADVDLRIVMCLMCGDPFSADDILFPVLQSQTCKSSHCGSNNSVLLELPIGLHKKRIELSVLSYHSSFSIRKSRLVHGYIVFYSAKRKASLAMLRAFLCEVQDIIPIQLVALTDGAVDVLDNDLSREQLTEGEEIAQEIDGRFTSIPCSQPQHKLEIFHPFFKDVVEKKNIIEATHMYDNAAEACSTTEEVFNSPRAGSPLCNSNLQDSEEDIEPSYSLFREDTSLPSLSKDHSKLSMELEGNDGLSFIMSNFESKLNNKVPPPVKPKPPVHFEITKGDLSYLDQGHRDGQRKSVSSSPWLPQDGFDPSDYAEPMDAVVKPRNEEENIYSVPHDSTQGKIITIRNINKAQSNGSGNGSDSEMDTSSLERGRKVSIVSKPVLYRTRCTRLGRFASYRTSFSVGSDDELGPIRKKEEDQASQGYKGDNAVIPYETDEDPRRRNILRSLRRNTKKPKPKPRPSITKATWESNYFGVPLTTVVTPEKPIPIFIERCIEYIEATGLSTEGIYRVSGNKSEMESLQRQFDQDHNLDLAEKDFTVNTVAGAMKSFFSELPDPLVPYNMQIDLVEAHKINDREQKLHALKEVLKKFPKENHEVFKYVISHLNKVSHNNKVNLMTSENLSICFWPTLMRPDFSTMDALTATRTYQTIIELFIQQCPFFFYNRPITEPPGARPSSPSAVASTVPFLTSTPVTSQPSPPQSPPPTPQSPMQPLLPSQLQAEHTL", "assay": "ITC", "conditions": "cited from earlier work"}, "[2]": {"molecular_target": "p190RhoGAP pY1087 peptide (Homo sapiens) (UniProt Q9NRY4)", "sequence (Q9NRY4 whole entry)": "as above", "assay": "ITC", "conditions": "cited from earlier work"}, "[3]": {"molecular_target": "T1, p120RasGAP SH2-SH3-SH2 region (residues 174–444) (human, UniProt P20936 174-444, C236S | C261S | C372S | C402S)", "T1 sequence (looked up)": "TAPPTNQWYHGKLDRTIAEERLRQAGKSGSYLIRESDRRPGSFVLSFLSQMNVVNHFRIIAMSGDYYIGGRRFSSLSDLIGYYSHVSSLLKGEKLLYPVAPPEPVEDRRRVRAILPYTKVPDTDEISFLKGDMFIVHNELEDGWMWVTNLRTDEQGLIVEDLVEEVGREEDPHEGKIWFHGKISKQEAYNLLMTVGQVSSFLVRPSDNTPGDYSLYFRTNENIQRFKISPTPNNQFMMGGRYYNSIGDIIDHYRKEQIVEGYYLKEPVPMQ", "assay": "ITC"}, "[4]": {"system": "Ras", "conditions": "ref [3],[4]; cited from earlier work"}}, "note": "Non-standard residues stand in square brackets, D forms with d. pY = N[C@@H](Cc1ccc(OP(=O)(O)O)cc1)C(=O)O", "data": [{"molecule": "p120RasGAP N-SH2 (from UniProt P20936)", "values": [{"measurement": "Kd", "setting": "[1]", "result": 300, "unit": "nM"}]}, {"molecule": "p120RasGAP C-SH2 (from UniProt P20936)", "values": [{"measurement": "Kd", "setting": "[2]", "result": 150, "unit": "nM"}]}, {"molecule": "Ac-DPSD[pY]AEPMDAVVKPRNEEENI[pY]SVPHDS-NH2", "note": "[doubly-phosphorylated p190RhoGAP-A peptide (residues 1083–1111, pY1087 and pY1105)]", "values": [{"measurement": "dH", "setting": "[3]", "result": -31.1, "unit": "kcal/mol"}]}, {"molecule": "B1", "values": [{"measurement": "enhancement of GTPase activity of Ras", "setting": "[4]", "result": "two to five orders of magnitude"}]}]}
